Reference: patent US8487082B2, “Synthetic scFv analogue to the 6313/G2 (anti angiotensin II type 1 receptor) monoclonal antibody variable regions” (Queen Mary & Westfield College, priority 2008, dated 2013)

Test system: T47D cells
Assay: Apoptosis - caspase-3/7 activity
Assay type: cell-based
Text: Cells were harvested using Trypsin/EDTA and counted.

B1: R6313/G2: murine scFv analogue of the 6313/G2 anti-AT1 receptor monoclonal antibody variable domains, SEQ ID NO:15 (protein)
scFv: YAAQPAMAQVKLQQSGPELEKPGASVKISCKASGYSFTGYNMNWVKQSNGKSLEWIGNIDPYYGGTTYNQKFKGKATLTVDKSSSTAYMQLKSLTSEDSAVYYCAREVDYWGQGTTVTVSSGGGGSGGGGSGGGGSDIELTQSPASLAVSLGQRATISYRASKSVSTSGYSYMHWNQQKPGQPPRLLIYLVSNLESGVPARFSGSGSGTDFTLNIHPVEEEDAATYYCQHIRELTRSEGTKLEIKRAAAGAPVPY
modifications: 12D
100 nmol/L angiotensin II, 12 hours
  effect on angiotensin II inhibition of caspase-3/7 activity: inhibition was blocked
R6313/G2 alone, 48 hours
  caspase-3/7 activity: dose-dependent increase of caspase-3/7 activity
